These results are taken from a protein production outcome set (Wang et al. 2014).

The data set is described as follows: label from the status in PepcDB records.
“RDTSVVVEHTSANPTGPVHVGRARNPIIGDAVARVLDYAGYDVDRHYYVNDAGRQIAVFTWAYETFDEDDLPEPERESPEYEMVRYYRKGNTILEDGDPDEVEAAEAEVQSILQGLEDGDEETYERVAEVVDTVLGGMQNTLGRLPAEFDEFVKETKFMRNGDTDDLVDRLKGLDCAVYEEDAWQLDLPDFEKNLVFLRSDGTSLYTTRDLAHHEWKFDTYDRAVTVLGEDHKLQADQLAAALELLDNDTDQLRQVFYSWVNLPEGGMSTREGTGIDLDDLLDEAIDRAREEVESRLDDRTRGDLDEDDIDRIARQVGIGAVRYDIVSKQPTKGITFEWDRALDFEAQSAPYVQYV”: the protein production result is listed as “failed”. Take “REMGCAVTVADSNSAQLDKLAQQTGCQTISPADVVSDGFQDYTVVVTSPGWRPDSPLLVAAQSAGLEVIGDVELVYRLDRAEVFGPKRTWMVVTGTNGKTTTTAMLAEIMQHSGARAAAVGNIGVSVADAVRTQPRIDVLVAELSSFQL”: the protein production result was “failed”. The entry for “RESVEKQKKLEAILVSMDSGVIAVDRKHKIIMINPYAEKIFGIDKNIIGQSLMDCIRNYEFEDIFNKRAEGYAEIKTSWPKERNLRIKTADIINGYECIGTVAVVQDIT” is “failed”; for “RFGLPVNGALDQYSARAANILAGNLDNHPLLEITALDFRMKANSDVLIAVTGAPLTLTVGGRPCSQWEPVSVRAGESVSIRGIHRGLRAYLAIHGSIEAGTLLGSAAPDTVVGFGLQLQEGTTLLSRRSVSPVRQPYFDLPLFRLGLERPSMGSDLSVDVTDGPDVAEFGESGELLFTSEYVVSGRSNHIGLRLGGELPERTSSDEVLSRGVPVGAVEVPSREELLVLHRGRGVTAGYPVLAVVTSTGLDVLAQARPGDKVRFRKTTVAEATAAHRRSRAQ” it is “failed”; for “RFKQNADHIVLTHVFNGGSAESAALCPQDKIIALDGYACTDFAAQWARYHVRAKINIHFFRAGILRQTVLTVQATAADTAI” it is “failed”. The entry for “RGRGGTGGARRLSCGARRRAARGTSPGRRLSTAWSQPQPPPEEYAGADDVSQSPVAEEPSWVPSPRPPVPHESPEPPSGRSLVQRDIQAFLNQCGASPGEARHWLTQFQTCHHSADKPFAVIEVDEEVLKCQQGVSSLAFALAFLQRMDMKPLVVLGLPAPTAPSGCLSFWEAKAQLAKSCKVLVDALRHNAAAAVPFFGGGSVLRAAEPAPHASYGGIVSVETDLLQWCLESGSIPILCPIGETAARRSVLLDSLEVTASLAKALRPTKIIFLNNTGGLRDSSHKVLSNVNLPADLDLVCNAEWVSTKERQQMRLIVDVLSRLPHHSSAVITAASTLLTELFSNKGSGTLFKNAERMLRVRSLDKLDQGRLVDLVNASFGKKLRDDYLASLRPRLHSIYVSEGYNAAAILTMEPVLGGTPYLDKFVVSSSRQGQGSGQMLWECLRRDLQTLFWRSRVTNPINPWYFKHSDGSFSNKQWIFFWFGLADIRDSYELVNHAKGLPDSFHKPASDPGS” is “failed”; for “RGSRFTWRKECLAVMESYFNENQYPDEAKREEIANACNAVIQKPGKKLSDLERVTSLKVYNWFANRRKEIKRRANIAAILES” it is “not failed”; for “RKEMTAACTPRRRIINLTSVLSLQEEINEQGHEVLREMLHNHSFVGCVNPQWALAQHQTKLYLLNTTKLSEELFYQILIYDFANFGVLRLSEPAPLFDLAMLALDSPESGWTEEDGPKEGLAEYIVEFLKKKAEMLADYFSLEIDEEGNLIGLPLLIDNYVPPLEGLPIFILRLATEVNWDEEKECFESLSKECAMFYSIRKQYISEESTLSGQQSEVPGSIPNSWKWTVEHIVYKALRSHILPPKHFTEDGNILQLANLPDLYKVFERC” it is “failed”. With “RKKPVSQSLEFPTRYSPYRPYRCVHQGCFAAFTIQQNLILHYQAVHKSDLPAFSAEVEEE”, the protein production result is on record as “not failed”. The entry for “RNPLFTCVISSIETTLSIPISGVHRDVIKYTPSADVELVFYGKSLTLKTPPIDATGSPTPATITRACVELKNIKNLHIDAGAFVKPKIPFIEIDEKPTGRIEEGKAMNNSKELYMKGYLLGKNLDAELLIVGESVPGGTTTALGVLLGLGYDAEGKVSSGSINNPHELKIKVVREGLKKAGINEKSSVFDVLNAVGDKMMPVVAGLAISFAERNKPVILAGGTQMSAVLAVIKEINKKVLDKNLIAIGTTEFVLNDKKGDLKGIVEQIGNVPVLASKFYFEKAKIEGLKNYCKGSVKEGVGAGGIAVYSIVNDL” is “failed”. The same measure for “RNVWVVAELDEQGVSEASLQMLTPARRIADKLGESVVGVIAGPPGSSQLAVEMVERGADEVIVVEHERLSEYYPDVVGSVIVELSLKYKPSVILFAATARGREMAPYVANTLKTGITADCTDFDVDPKTRDVLLIRPPFSAIMLAYIRTPFRRPQIGTARPNVFPLPERQPGRQGRIVREEVEPPEPMARLVNRVRIPRSEVP”: “failed”. The same measure for “RPAIRKRLLKPKVLDSSPRALVGHRAEVLEDVGATSGQVRLDGSIWSARSMDPTHTFAEGEIVSVIDIQGTTAIVWKEA”: “not failed”; for “RPHVVKVYSEDGACRSVEVAAGATARHVCEMLVQRAHALSDETWGLVECHPHLALERGLEDHESVVEVQAAWPVGGDSRFVFRKNFA”: “not failed”.

For the sequence “RPQTTDNWQNTEIEGIDIMLAVDVSTSMLAEDLKPNRLEAAKQVASEFINGRPNDNIGLTIFAGESFTQCPLTVDHGVLLNLFNSIKGDIAQRGLIEDGTAIGMGIANAVTRLKDSKAKSKVIILLTDGSNNRGDISPLTAAEIAKQFGIRIYTIGVGTNGTAPYPMQTYAGTQYVNVPVEIDEKTLTEIAGTTNGNYFRATSNSKLKEVYQEIDKLEKTKL”, the protein production entry was “failed”.

Take “RQLSRHTYAVRALTDIDDFNAQFNTDFDDEEVDTIGGLIMQTFGYLPKRGEEIILKNLQFKVTSADSRRLIQLRVTVPDEHLAEMNNVDEKSE”: the protein production entry is on record as “failed”. “RQVQKELGDVLVRLHNPVVLTPTTVQVTWTVDRQPQFIQGYRVMYRQTSGLQATSSWQNLDAKVPTERSAVLVNLKKGVTYEIKVRPYFNEFQGMDSESKTVRTTEE”: the protein production result is given as “not failed”.

Consider “RRHYIDAFGTGPGFAAVASFYPGCFRIKPPGGRDYDLVGPDIAQPLLLLMGDADTETPAAECVDKLTPLKAAGAPVEWHVYPSTTHCWDCQQLDGRSKTDVRGNHVAYRYQPDVVADSERRLFAFLER”, for which the protein production result is on record as “failed”. Regarding “RSAEALFEKAVTPSDVGKLNRLVIPKHHAEKHFPLPSSNVSVKGVLLNFEDVNGKVWRFRYSYWNSSQSYVLTKGWSRFVKEKNLRAGDVVSFSRSNGQDQQLYIGWKSRSGSDLDA”, the protein production entry is reported as “not failed”. As to “RSLQLDKLVNEMTQHYENSVPEDLTVHVGDIVAAPLPTNGSWYRARVLGTLENGNLDLYFVDFGDNGDCPLKDLRALRSDFLSLPFQAIECSLARIA”, the protein production result is on record as “not failed”.

For the sequence “RSMEDVRLHRKEKGDAYSFNWSLKIEADFQLPFDPTHTSMEGLNLNLDQEPQVLAANLRKAFSGIVAGNVKAEGIREIECKGPFSIHGDPVLMKKLDKLLQDFVEQHRMKLPGGSDYEPCYRIAHP”, the protein production result was “failed”.

“RTRALYDLGRELASALTASQIIETAVGRLEPLFRAKVMLFIPNSEDRLRAATETGNDADAGVAQWVFDNQQPAGLGTNTLPSNAALYVPLKAPMRVRGVIALLPEDAVHPFLPEQQRLLETCAAQIALALERVHYVEVAQDAIV”: the protein production entry is “failed”. On to “RTVAQNASETTVSYDTDTAVLSEADVLRIALSENATVKVADMDVRKQEYARRAARADLFPKVDLNGVYSHTLKKQVLYIDMPGFSSSEGIEMGRTHNTQGGVNVSMPLVSAQLWKSIAMTGEQLDLALEKARSSRIDLVAEVKKAYLSVLLAEDSYGVFKRSYDNALANYKNISDKFDRGLVAEYDKIRANVQVRNIEPNLLQAQNSVALALWQLKVLMSMEVETPIRLSGSLSDYKEQVYTGYFAADTLISNNSSLRQLDIQRRLAVSADKLNKYSFLPTLNLGGQYTYSLNSNDIKFWGEGQR”, for which the protein production result is reported as “not failed”. Consider “RVKESITRTSRAPSVATVGSICDLNLKIPEINSSDMSAHVTSPSGRVTEAEIVPMGKNSHCVRFVPQEMGVHTVSVKYRGQHVTGSPFQFTVGPLGEGG”, for which the protein production entry is on record as “not failed”. With “RYPTNNFGNCTGCSATFSVLKKRRSCSNCGNSFCSRCCSFKVPKSSMGATAPEAQRETVFVCASCNQTLSK”, the protein production result was “not failed”. The same measure for “SAAVGAEARGAWCVPCLVSLDTLQELCRKEKLTCKSIGITKRNLNNYEVEYLCDYKVVKDMEYYLVKWKGWPDSTNTWEPLQNLKCPLLLQQFSNDKHNYLSQVITSEEAERRGQFYDNKGITYLFDLDYESDEFTVDAARYGNVSHFVNHSCDPNLQVFNVFIDNLDTRLPRIALFSTRTINAGEELTFDYQMKGSGDISSDSIDHSPAKKRVRTVCKCGAVTCRGYLN”: “failed”; for “SADEAPSSADEAPSSAVEQIVAPVDFSDLTEVALRHVAQIAPLYDVPVTLVHVVEDPTMPSVYEVNASAVRARAAEQRAEEALQSLGAPIEETGVSVSYLVHRGQTTSTVVEATGHRDTLTVMGTKGLSGLRRVMLGSVTEAVIRASDGPVLAVPASAQEASPANE”: “failed”; for “SADSEADKPLRKISAAFKKLAIIVNSPNPEVPVTQFSHACSLVSPLFGCLGIAFKFAEMDYVAKVDDLVRASSSISTLVVMMDKDIEADCVRKAGSHTRNLLRVKRGLDMVKVLFEQIIASEGDNSLKDPATKSYAQVFAPHHGWAIRKAVSLGMYALPTRAHLLNMLKEDEAAAKIHMQSYVNSSAPLITYLDNLFLSKQLGIDW”: “failed”. The entry for “SAEASSANLGSGCEEKRHEGSSSESVPPGTTISRVKLLDTMVDTFLQKLVAAGSYQRFTDCYKCFYQLQPAMTQRIYDKFIAQLQTSIREEISDIKEEGNLEAVLNALDKIVEEGKVRKEPAWCEAQRCRVQQRCSLCVQAGGQRGSEETQALPVSMAGSPSPLPGSPGAQEGGV” is “failed”; for “SAKDPLAEAGLHFDELNKLRVLEPDVSQKTTELKEECEEFVDKIGQFQKIVGGLIELVDELAKEAETEKMKAIGARNLLKSVEKQREAQHQQLQALIAEKKMQLERYRIEYEALQKVEAEQSEFIDQFILQK” it is “failed”; for “SAMAQKEEGHEAAAAEAKKETDLAHVDQVETFVGKEKYYVVKGTDKKGTALYVWVPADKKAKILSKEAKEGISEDKAAKIIKDEGLVSKQKEVHLAREGNVLLWEVTYLDKEGQYSLSYVDFTTGKILKNITP” it is “not failed”. The same measure for “SATERADSADFRTIIRNKIPLMDVRAPVEFGKGAFDLSINYPLMNNDERADVGICYKQNGQEAAIKLGNALVSGQSKARRLTQWQTFARENPQGYLYCFRGGLRSQTVQRWLKESGINYPLITGGYKALRQFLLNELEQLALH”: “failed”; for “SCGDKMNKNTGALEFDSIQVNETAHLFGDTAKPACNLTINFAYPVKSTDNKLKDSLNSYFIAACFGEGYIGEKPAQVVKEYTEHYVKEYRTDLEPMYAEDEKNKESEGSIGAWYSYYKGIESHVQLYYKNLLVYRINYNEYTGGAHGIYMTTFLNMDLINLRPLKLDDIFTGDYKEALTDLLWNQLMADKKVTTHEALEDMGYGSTGDIAPTENFYLDKDGITFYYNVYDITPYAMGPVEIKIPYEMMEHMLGSNPIIGEMKSK”: “not failed”. With “SDPLYVPDPDPTKFPVNRNLTRKAGYLNARNKTGLVSSTWDRQFYFTQGGNLMSQARGDVAGGLAMDIDNCSVMAVDCEDRRYCFQITSFDGKKSSILQAESKKDHEEWICTINNISKQIYLSENPEETAARVNQSALEAVTPSPSFQQRHESLRPAAGQSRPPTART”, the protein production result is “failed”.
